{
  "source": "patent US20160289305A1",
  "key": {"[1]": {"target": "JR-CSF gp120 N276A (HIV-1) (UniProt P20871)", "experiment": "cell-based or functional assay"}, "ΔRSC3": {"target": "ΔRSC3", "experiment": "method not given"}, "[2]": {"target": "JR-CSF gp120 D279A (HIV-1) (UniProt P20871)", "experiment": "cell-based or functional assay"}},
  "data": [
    {"substance": "VRC01 (antibody)", "values": [
      {"measurement": "neutralization potency, JR-CSF pseudovirus", "setting": "[1]", "result": 4, "unit": "fold"}
    ]},
    {"substance": "VRC-PG04b (antibody)", "values": [
      {"measurement": "fold less binding than to RSC3", "setting": "ΔRSC3", "result": "> 100", "unit": "fold"}
    ]},
    {"substance": "VRC-PG-04 (antibody)", "values": [
      {"measurement": "neutralization potency compared to wildtype, JRCSF pseudovirus entry", "setting": "[2]", "result": "< 10", "unit": "%"}
    ]}
  ]
}
